Measurements from PMC4968834, “Generation and Characterization of an IgG4 Monomeric Fc Platform” (PLoS ONE, 2016).
Where two headings read alike, the source gives them in different places.

B1: Onart-Fab-C4 (Fab of Onartuzumab fused to monomeric Fc C4) (Fc fusion)
chain 1: EVQLVESGGGLVQPGGSLRLSCAASGYTFTSYWLHWVRQAPGKGLEWVGMIDPSNSDTRFNPNFKDRFTISADTSKNTAYLQMNSLRAEDTAVYYCATYRSYVTPLDYWGQGTLVTVSSASTKGPSVFPLAPSSKSTSGGTAALGCLVKDYFPEPVTVSWNSGALTSGVHTFPAVLQSSGLYSLSSVVTVPSSSLGTQTYICNVNHKPSNTKVDKKVEPKSCPEFLGGPSVFLFPPKPKDTLYITREPEVTCVVVDVSQEDPEVQFNWYVDGVEVHNAKTKPREEQFNSTYRVVSVLTVLHQDWLNGKEYKCKVSNKGLPSSIEKTISKAKGQPREPQVYTFPPSQEEMTKNQVSLRCLVKGFYPSDIAVEWESNGQPENNYKTTKPVLDSDGSFRLESRLTVDKSRWQEGNVFSCSVMHEALHNHYTQKSLSLSLGK
chain 2: DIQMTQSPSSLSASVGDRVTITCKSSQSLLYTSSQKNYLAWYQQKPGKAPKLLIYWASTRESGVPSRFSGSGSGTDFTLTISSLQPEDFATYYCQQYYAYPWTFGQGTKVEIKRTVAAPSVFIFPPSDEQLKSGTASVVCLLNNFYPREAKVQWKVDNALQSGNSQESVTEQDSKDSTYSLSSTLTLSKADYEKHKVYACEVTHQGLSSPVTKSFNRGEC

Tests used:
[1] = molecular target: T1, Recombinant human FcRn (soluble) (human, UniProt P55899 24-297; P61769 21-119, biotin (biotinylated FcRn; which chain and site not stated)); test: BLI; Octet384; biotinylated FcRn captured on streptavidin biosensors, Fc variants in solution; 100 mM MES pH 6.0, 3 mg/ml BSA, 0.05% Tween 20; steady-state analysis, apparent KD, avidity binding format
T1 sequence (P55899 24-297, chain 1 of 2): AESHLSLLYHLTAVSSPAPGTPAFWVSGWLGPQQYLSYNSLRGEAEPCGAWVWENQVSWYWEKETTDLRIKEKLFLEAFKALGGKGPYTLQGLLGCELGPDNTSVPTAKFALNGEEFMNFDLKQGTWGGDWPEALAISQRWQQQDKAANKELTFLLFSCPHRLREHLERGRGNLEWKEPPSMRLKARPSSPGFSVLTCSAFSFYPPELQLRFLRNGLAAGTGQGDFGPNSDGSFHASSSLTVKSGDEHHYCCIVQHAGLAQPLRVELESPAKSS
T1 sequence (P61769 21-119, chain 2 of 2): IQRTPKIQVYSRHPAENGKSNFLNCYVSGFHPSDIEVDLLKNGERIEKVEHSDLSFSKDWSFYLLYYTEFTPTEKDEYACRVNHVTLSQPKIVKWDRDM

[2] = molecular target: Clone 4 (C4), monomeric IgG4 Fc with YTE; test: BLI; Octet384; binding of inactive IdeS (C94S) to Fc; who was immobilised not told
[3] = molecular target: T1, Recombinant human FcRn (soluble); test: cell-based or functional assay

Molecule | Kd [1] [nM] | also measured
IgG1 YTE (antibody) | 39 | 
IgG1 mAb control (antibody) | 270 | 
IgG4 wildtype Fc (domain or fragment) | 140 | 
Inactive form of IgG-degrading enzyme of S. pyogenes (IdeS, C94S) |  | Kd [2]: 3000 nM
B1 |  | terminal half-life (T1/2) in hFcRn transgenic mice, 2.5 mg/kg intravenous [3]: 21 h; Kd ([1]; both partners purified): 160 nM
